Numbering of substitutions follows the chain as printed.
T1: h Y1 (Homo sapiens, UniProt P25929)
T1 construct: expressed in transfected cells; host or cells: COS-7
T1 sequence (P25929 1-384): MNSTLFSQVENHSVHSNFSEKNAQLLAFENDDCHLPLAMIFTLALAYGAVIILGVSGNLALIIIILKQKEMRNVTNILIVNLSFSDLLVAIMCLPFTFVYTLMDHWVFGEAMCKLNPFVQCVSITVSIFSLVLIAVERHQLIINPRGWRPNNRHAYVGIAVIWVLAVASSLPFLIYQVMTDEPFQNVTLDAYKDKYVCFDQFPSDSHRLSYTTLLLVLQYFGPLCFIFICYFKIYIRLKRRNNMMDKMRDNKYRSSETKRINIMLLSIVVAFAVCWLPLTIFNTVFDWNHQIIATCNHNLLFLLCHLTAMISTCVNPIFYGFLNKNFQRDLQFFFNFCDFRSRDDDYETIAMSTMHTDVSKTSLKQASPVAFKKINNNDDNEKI

T2: h 5HT1A (Homo sapiens, UniProt P08908)
T2 sequence (P08908 1-422): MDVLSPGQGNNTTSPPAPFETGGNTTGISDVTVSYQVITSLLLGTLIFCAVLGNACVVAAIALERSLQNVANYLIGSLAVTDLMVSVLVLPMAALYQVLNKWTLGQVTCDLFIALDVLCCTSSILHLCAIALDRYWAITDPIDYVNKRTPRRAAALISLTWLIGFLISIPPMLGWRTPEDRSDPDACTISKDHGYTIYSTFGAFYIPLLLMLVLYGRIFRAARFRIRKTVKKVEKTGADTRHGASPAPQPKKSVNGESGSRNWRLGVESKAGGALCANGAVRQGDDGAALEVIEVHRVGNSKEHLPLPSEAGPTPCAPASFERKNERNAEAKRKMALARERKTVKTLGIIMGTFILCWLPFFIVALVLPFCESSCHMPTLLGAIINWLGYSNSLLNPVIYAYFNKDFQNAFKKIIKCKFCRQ

T3: h Y2 (Homo sapiens, UniProt P49146)
T3 construct: expressed in transfected cells; host or cells: COS-7
T3 sequence (P49146 1-381): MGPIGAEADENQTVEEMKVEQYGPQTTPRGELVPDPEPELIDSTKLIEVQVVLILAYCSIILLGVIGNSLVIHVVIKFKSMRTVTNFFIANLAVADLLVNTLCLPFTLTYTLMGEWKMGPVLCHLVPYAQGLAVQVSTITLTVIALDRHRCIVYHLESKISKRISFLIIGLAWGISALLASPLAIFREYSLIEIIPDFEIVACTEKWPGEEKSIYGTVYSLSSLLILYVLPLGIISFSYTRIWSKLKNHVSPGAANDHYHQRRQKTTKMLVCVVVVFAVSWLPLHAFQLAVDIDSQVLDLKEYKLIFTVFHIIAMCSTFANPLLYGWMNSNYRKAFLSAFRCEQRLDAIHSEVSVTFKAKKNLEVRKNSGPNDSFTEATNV

B1: cGαq/z5: chimeric Gα subunit: C-terminal final 5 amino acids of C. elegans Gαq replaced with those of hGαz (SEQ ID NO: 1) (protein)
chain: MACCLSEEAREQKRINQEIEKQLQRDKRNARRELKLLLLGTGESGKSTFIKQMRIIHGQGYSEEDKRAHIRLVYQNVFMAIQSMIRAMDTLDIKFGNESEELQEKAAVVREVDFESVTSFEEPYVSYIKELWEDSGIQECYDRRREYQLTDSAKYYLSDLRRLAVPDYLPTEQDILRVRVPTTGIIEYPFDLEQIIFRMVDVGGQRSERRKWIHCFENVTSIMFLVALSEYDQVLVECDNENRMEESKALFRTIITYPWFTNSSVILFLNKKDLLEEKILYSHLADYFPEYDGPPRDPIAAREFILKMFVDLNPDADKIIYSHFTCATDTENIRFVFAAVKDTILQHNLKYIGLC
modifications: C. elegans
B2: cGαq/z9: C. elegans Gαq with Gαz portion of the C-terminal tail extended to 9 amino acids (SEQ ID NO: 2) (protein)
chain: B1 chain with H347N
modifications: C. elegans

Legend:
Type in all cases: cell-based
h Y1 = target: T1, h Y1; test: Calcium mobilization (FLIPR, Fluo-3) in transfected COS-7 cells; conditions: h Y1 + chimera in COS-7; agonist NPY, max 10 μM
Procedure: (§1) COS-7 cells were cultured in 225 cm^2 flasks in Dulbecco's Modified Eagle Medium (DMEM) with supplements (10% bovine calf serum, 4 mM glutamine, 100 units/ml penicillin and 100 μg/ml streptomycin) at 37° C., 5% CO2. Stock plates of COS-7 cells were trypsinized and split 1:6 every 3–4 days.
(§2) GPCR and chimeric G protein cDNAs were transiently transfected into COS-7 cells in 150 cm^2 flasks by the DEAE-dextran method (Cullen, 1987), using a total of 20 μg of DNA/˜7×10^6 cells. For evaluating the function of a single chimeric G protein, the standard cDNA transfection ratio was 1:1 (10 μg GPCR cDNA and 10 μg chimeric G protein cDNA). For evaluating the function of a mixture of chimeric G proteins, the standard cDNA transfection ratio was 8:1:1 (16 μg GPCR cDNA, 2 μg Gαq/z cDNA, 2 μg Gαq/s cDNA).
(§3) Twenty four hours after transient transfection, COS-7 cells were seeded into 96-well black wall microtiter plates coated with poly-D-lysine for assay the following day. Just prior to assay, culture medium was aspirated and cells were dye-loaded with 4 μM Fluo-3/0.01% pluronic acid in assay buffer composed of Hank's Balanced Salt Solution (138 mM NaCl, 5 mM KCl, 1.3 mM CaCl2, 0.5 mM MgCl2, 0.4 mM MgSO4, 0.3 mM KH2PO4, 0.3 mM Na2HPO4, 5.6 mM glucose) plus 20 mM HEPES (pH 7.4), 0.1% BSA and 2.5 mM probenicid (100 μl/well) for 1 hour in 5% CO2 at 37° C. After excess dye was discarded, cells were washed in assay buffer and layered with a final volume equal to 100 μl/well. Basal fluorescence was monitored in a fluorometric imaging plate reader (FLIPR™, Molecular Devices) with an excitation wavelength of 488 nm and an emission range of 500 to 560 nm. Laser excitation energy was adjusted so that basal fluorescence readings were approximately 10,000 relative fluorescent units. Cells were stimulated with agonists diluted in assay buffer (50 μl), and relative fluorescent units were measured at defined intervals (exposure=0.4 sec) over a 3 min period at room temperature. Maximum change in fluorescence was calculated for each well. Concentration-response curves derived from the maximum change in fluorescence were analyzed by nonlinear regression (Hill equation).

h D5 = h D5 (Homo sapiens, UniProt P21918); test: as above; conditions: h D5 + chimera in COS-7; agonist DA, max 100 μM
h D5, sequence (P21918 whole entry): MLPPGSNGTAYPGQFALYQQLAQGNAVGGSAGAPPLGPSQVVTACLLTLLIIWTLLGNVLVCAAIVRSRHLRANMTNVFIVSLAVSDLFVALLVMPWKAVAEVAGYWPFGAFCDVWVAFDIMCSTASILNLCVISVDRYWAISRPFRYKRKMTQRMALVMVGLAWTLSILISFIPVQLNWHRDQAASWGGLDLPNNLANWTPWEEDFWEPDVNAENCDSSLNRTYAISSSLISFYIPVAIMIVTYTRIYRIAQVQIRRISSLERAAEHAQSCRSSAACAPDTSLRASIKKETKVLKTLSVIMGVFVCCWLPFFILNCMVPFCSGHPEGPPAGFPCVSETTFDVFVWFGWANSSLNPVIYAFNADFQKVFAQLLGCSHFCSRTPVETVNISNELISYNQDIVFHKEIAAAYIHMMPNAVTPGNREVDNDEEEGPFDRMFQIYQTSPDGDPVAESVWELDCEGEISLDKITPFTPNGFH
Procedure: as §1, §2, §3

h 5HT1E = h 5HT1E (Homo sapiens, UniProt P28566); test: as above; conditions: h 5HT1E + chimera in COS-7; agonist 5HT, max 100 μM
h 5HT1E, sequence (P28566 whole entry): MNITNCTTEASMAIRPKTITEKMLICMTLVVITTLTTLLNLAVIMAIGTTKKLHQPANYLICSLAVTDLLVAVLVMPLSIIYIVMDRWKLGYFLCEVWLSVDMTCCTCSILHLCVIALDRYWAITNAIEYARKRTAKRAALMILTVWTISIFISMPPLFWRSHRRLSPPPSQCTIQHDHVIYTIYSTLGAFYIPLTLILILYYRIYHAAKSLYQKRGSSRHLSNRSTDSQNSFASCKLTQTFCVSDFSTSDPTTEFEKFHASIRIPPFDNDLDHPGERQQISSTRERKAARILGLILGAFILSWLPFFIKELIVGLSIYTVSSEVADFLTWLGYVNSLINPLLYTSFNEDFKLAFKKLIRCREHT
Procedure: as §1, §2, §3

h 5HT1D = h 5HT1D (Homo sapiens, UniProt P28221); test: as above; conditions: h 5HT1D + chimera in COS-7; agonist 5HT, max 100 μM
h 5HT1D, sequence (P28221 whole entry): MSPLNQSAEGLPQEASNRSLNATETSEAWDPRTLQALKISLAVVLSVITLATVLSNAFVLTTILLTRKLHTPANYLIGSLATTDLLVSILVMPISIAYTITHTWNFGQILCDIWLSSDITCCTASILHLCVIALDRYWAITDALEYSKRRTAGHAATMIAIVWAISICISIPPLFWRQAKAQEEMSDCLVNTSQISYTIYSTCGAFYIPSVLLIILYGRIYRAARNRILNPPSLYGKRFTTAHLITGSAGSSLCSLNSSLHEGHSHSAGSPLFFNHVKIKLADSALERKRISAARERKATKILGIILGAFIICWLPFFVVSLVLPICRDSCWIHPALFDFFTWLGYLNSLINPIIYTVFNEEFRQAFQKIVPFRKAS
Procedure: as §1, §2, §3

h 5HT1A = target: T2, h 5HT1A; test: as above; conditions: h 5HT1A + chimera in COS-7; agonist 5HT, max 100 μM
Procedure: as §1, §2, §3

h Y2 = target: T3, h Y2; test: as above; conditions: h Y2 + chimera in COS-7; agonist NPY, max 10 μM
Procedure: as §1, §2, §3

[1] = tested on: panel of 36 different GPCRs, including Gαi/i-, Gαs-, and Gαq-coupling receptors; test: Detection rate in COS-7 calcium mobilization over a GPCR panel; conditions: COS-7, single chimera co-transfected with each GPCR
Procedure: as §1
as §2, with “For evaluating the function of a mixture of chimeric G proteins, the standard cDNA transfection ratio was 8:1:1 (16 μg GPCR cDNA, 2 μg Gαq/z cDNA, 2 μg Gαq/s cDNA).” left out
Twenty four hours after transient transfection, COS-7 cells were seeded into 96-well black wall microtiter plates coated with poly-D-lysine for assay the following day. […] Basal fluorescence was monitored in a fluorometric imaging plate reader (FLIPR™, Molecular Devices) with an excitation wavelength of 488 nm and an emission range of 500 to 560 nm. Laser excitation energy was adjusted so that basal fluorescence readings were approximately 10,000 relative fluorescent units. Cells were stimulated with agonists diluted in assay buffer (50 μl), and relative fluorescent units were measured at defined intervals (exposure=0.4 sec) over a 3 min period at room temperature. Maximum change in fluorescence was calculated for each well. […]

Molecule	MAXIMAL SIGNAL (FLUORESCENCE UNITS) (h Y1)	MAXIMAL SIGNAL (FLUORESCENCE UNITS) (h D5)	MAXIMAL SIGNAL (FLUORESCENCE UNITS) (h 5HT1E)	MAXIMAL SIGNAL (FLUORESCENCE UNITS) (h 5HT1D)	MAXIMAL SIGNAL (FLUORESCENCE UNITS) (h 5HT1A)	MAXIMAL SIGNAL (FLUORESCENCE UNITS) (h Y2)	receptors generating positive signals (>500 fluorescence units) / receptors tested [1]
B1	7722 fluorescence units	657 fluorescence units	229 fluorescence units	414 fluorescence units	1997 fluorescence units	7708 fluorescence units	28/36
B2	6728 fluorescence units	797 fluorescence units	238 fluorescence units	504 fluorescence units	3139 fluorescence units	5387 fluorescence units	29/36

From US7067277B1, “Chimeric G proteins and uses thereof” (H. Lundbeck A/S, priority 1999, dated 2006)
